Target: KO_CRD4+linker (human OX40 aa 147 to 214 replaced with the mouse counterparts) (human; mouse)
Assay: flow cytometry, transfected 293F cells, column KO_CRD4+linker

Sequence of KO_CRD4+linker (human OX40 aa 147 to 214 replaced with the mouse counterparts) (human; mouse) (chain, as listed by the source limits assumed, form in doubt): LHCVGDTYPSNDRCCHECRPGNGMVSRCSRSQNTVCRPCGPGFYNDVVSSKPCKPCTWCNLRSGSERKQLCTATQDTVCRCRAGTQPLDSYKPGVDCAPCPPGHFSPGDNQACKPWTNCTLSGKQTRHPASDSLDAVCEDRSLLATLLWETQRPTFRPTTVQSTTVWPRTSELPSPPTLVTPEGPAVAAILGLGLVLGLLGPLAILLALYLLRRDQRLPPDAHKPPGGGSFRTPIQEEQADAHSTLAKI

B1: 9B12 (antibody, mouse IgG1, V domains shown)
VH: EVQLQESGPSLVKPSQTLSLTCSVTGDSFTSGYWNWIRKFPGNRLEYMGYISYNGITYHNPSLKSRISITRDTSKNHYYLQLNSVTTEDTATYFCARYRYDYDGGHAMDYWGQGTLVTVSS
VL: DIQMTQTTSSLSASLGDRVTISCRASQDISNYLNWYQQKPDGTVKLLIYYTSKLHSGVPSRFSGSGSRTDYSLTITDLDQEDIATYFCQQGSALPWTFGQGTKVEIKR
Question: Which percent of cells in the Alexa Fluor 488 gate (number printed over the gate) does the source give for B1 here?
Answer: 52.7
